This note sets out measurements from the supplement of paper PMC10567573.

± gives the standard deviation.

A short description of this data set: protein stability index of a GFP-peptide fusion (GPS, HEK-293T) (PSI 1-6); higher = more stable.
Where [1] appears, read: treatment: DMSO, c terminus: a fixed tail appended.
Setting [2] is: treatment: MLN4924 1 uM, 8 h, c terminus: a fixed tail appended.
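Also: 24-mer peptide tiles fused after GFP, lentivirally expressed, FACS-sorted into six equal bins by GFP/DsRed ratio, decoded by Illumina sequencing, PSI is the read-weighted mean bin number.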

As to STFIRRYSRYLNEKAFSYRQMAFD [SNAP91], the protein stability index turned out to be 2.11 ± 0.24 under setting [1] and 2.22 ± 0.28 under setting [2].

STSAVPNLFVPLNTNPKEVQEMRN [ADD1] showed a protein stability index under setting [1] of 4.53 ± 0.21 and a protein stability index under setting [2] of 4.43 ± 0.28.

With STSRHVMAPVMAHVDPEEPWSPCS [ADAMTS4], the protein stability index amounted to 4.32 ± 0.14 under setting [1] and 4.41 ± 0.17 under setting [2].

Sequence SVAGWSLFSLNVISLTCVSVAFAV [SLC19A2] displayed a protein stability index under setting [1] of 2.92 ± 0.15 and a protein stability index under setting [2] of 3.21 ± 0.27.

As to SVDEQNALREVYAHAVLGQHSHVV [WEE1], the protein stability index was determined as 3.42 ± 0.14 under setting [1] and 3.47 ± 0.33 under setting [2].

With SVDPIAAFCSSDEELEDSKALLYL [RBBP5], the protein stability index was 3.94 ± 0.26 under setting [1] and 4.08 ± 0.36 under setting [2].

For SVEEQLSLISGCPNIQEAVEGAMH [CRYL1], the protein stability index amounted to 4.68 ± 0.17 under setting [1] and 4.64 ± 0.15 under setting [2].

In the case of SVLLGASNADQLMENIGAIQVLPK [KCNAB2], the protein stability index is, setting by setting: under setting [1], 3.58 ± 0.095; under setting [2], 3.6 ± 0.24.

Regarding SVNICGMNEHPVCSRTWTNRLCHQ [SPAG8], the protein stability index runs as follows: under setting [1], 2.29 ± 0.26; under setting [2], 2.36 ± 0.14.

For the sequence SWLEENVHEVLQAVDAGDPAVEAC [TCF25], the protein stability index is 4.86 ± 0.14 under setting [1] and 4.84 ± 0.32 under setting [2].

For SYQKPKEVVVAESELQKELKKVKT [DPCD], the protein stability index runs as follows: under setting [1], 4.95 ± 0.36; under setting [2], 5.25 ± 0.31.

On to TAHADEFDCPSELQHTQELFPQWH [STEAP1], for which the protein stability index reads like this: under setting [1], 3.79 ± 0.15; under setting [2], 3.84 ± 0.07.

For the sequence TCKASHITSSVFPSASLGKASSRK [FBXO34], the protein stability index runs as follows: under setting [1], 3.62 ± 0.28; under setting [2], 3.55 ± 0.2.

Regarding TDAHVWNKSVTLYTVKDKATGEVL [NLN], the protein stability index was 3.46 ± 0.6 under setting [1] and 3.36 ± 0.55 under setting [2].

Turning to TDKVGTEAAFHPIEEYMVHVEEHF [FUT8], the protein stability index came out at 4.07 ± 0.27 under setting [1] and 4.31 ± 0.33 under setting [2].

In the case of TDRPLLSTLEESVVRICCIRSFGH [SMG5], the protein stability index was determined as 2.36 ± 0.24 under setting [1] and 2.08 ± 0.12 under setting [2].

TDSEHSDAEVSCTDNGTFNLSRGQ [RETREG3] showed a protein stability index under setting [1] of 5.24 ± 0.22 and a protein stability index under setting [2] of 5.28 ± 0.22.

Regarding TEAGGVLMDVTGGPFDLMSRRVIA [IMPA1], the protein stability index by setting is: under setting [1], 3.22 ± 0.61; under setting [2], 3.37 ± 0.42.

On to TEGPSLLNQKGTAVETEGSGSRHP [SLC2A12], for which the protein stability index is, setting by setting: under setting [1], 5.43 ± 0.21; under setting [2], 5.36 ± 0.43.

As for TEPSGRVAKKTPTKRSTLIISGVS [C2CD2L], the protein stability index is, setting by setting: under setting [1], 3.76 ± 0.27; under setting [2], 3.92 ± 0.34.

For TEVVRDAVRKLKFARHIKKSEGQK [GULP1], the protein stability index under setting [1] came out at 3.65 ± 0.37 and the protein stability index under setting [2] came out at 3.85 ± 0.29.

TEYQIVTDPGDVPAFLKWLSLASL [SLC2A12] showed a protein stability index under setting [1] of 2.26 ± 0.35 and a protein stability index under setting [2] of 2.16 ± 0.42.

Turning to TFIPLEPLPQIPNLPFWVKEKANS [SPATS1], the protein stability index reads like this: under setting [1], 2.81 ± 0.19; under setting [2], 3.04 ± 0.15.

On to TGREMHGKNWSKLCKDCQVIDGRN [TPPP], for which the protein stability index was 3.14 ± 0.16 under setting [1] and 3.49 ± 0.11 under setting [2].

With TGWARKGLGNTWPGASGSAQSLDR [ATP23], the protein stability index under setting [1] is 4.17 ± 0.26 and the protein stability index under setting [2] came to 4.09 ± 0.16.

TIGASFMTKTVQYQNELHKFLIWD [RAB22A]: the protein stability index was found to be 2.5 ± 0.45 under setting [1] and 2.01 ± 0.16 under setting [2].

Take TIRGEVMFFKDRFYMRTNPFYPEV [MMP1]: the protein stability index runs as follows: under setting [1], 2.2 ± 0.39; under setting [2], 2.21 ± 0.12.

Turning to TISVNQTRVNLSSDTESTDLPSST [DLC1], the protein stability index is 4.11 ± 0.15 under setting [1] and 4.41 ± 0.23 under setting [2].

Consider TITSEVIEKCTTPLSDDHDEKYGV [CRY1], for which the protein stability index was determined as 5.21 ± 0.12 under setting [1] and 4.99 ± 0.22 under setting [2].

Regarding TKPLAIHPCGDKNCPAHWLAQDWE [ADAMTSL2], the protein stability index under setting [1] was 2.73 ± 0.79 and the protein stability index under setting [2] came out at 2.73 ± 0.12.

In the case of TLAQFPETLLGDPEKRTQYFDPLR [KCNA4], the protein stability index by setting is: under setting [1], 3.5 ± 0.31; under setting [2], 3.6 ± 0.36.

As to TLERYMCSRFFIDFPDILEQQRKL [TENT5C], the protein stability index under setting [1] was 2.35 ± 0.16 and the protein stability index under setting [2] worked out at 2.37 ± 0.037.

With TLPLQDRELGPEELDELQAAFEEF [CABP4], the protein stability index by setting is: under setting [1], 5.27 ± 0.23; under setting [2], 5.27 ± 0.24.

Consider TLTREQTERLSHQITSRVVSAATQ [RTN2], for which the protein stability index is 3.68 ± 0.19 under setting [1] and 3.75 ± 0.13 under setting [2].

Consider TMARIRRVYVSGLMKGGADLFVEN [APMAP], for which the protein stability index runs as follows: under setting [1], 2.2 ± 0.3; under setting [2], 2.07 ± 0.25.

Take TMLATRNFSAAKSLLKKPDGVKES [CAMK2D]: the protein stability index under setting [1] turned out to be 4.36 ± 0.067 and the protein stability index under setting [2] amounted to 4.33 ± 0.51.

On to TMPLYLEDDIRPDIKDDIYDPTYK [SCD], for which the protein stability index was found to be 4.46 ± 0.3 under setting [1] and 4.68 ± 0.17 under setting [2].

On to TNLPKGACALLLTSVDHDRAPVVG [DLC1], for which the protein stability index worked out at 2.97 ± 0.17 under setting [1] and 2.85 ± 0.3 under setting [2].

On to TNRWSFDGIDRWIKEIDEHAPGVP [RAB40C], for which the protein stability index by setting is: under setting [1], 3.91 ± 0.17; under setting [2], 3.97 ± 0.22.

Regarding TPAITVSNSCPAELPNIKREISET [TFE3], the protein stability index runs as follows: under setting [1], 5.16 ± 0.35; under setting [2], 4.86 ± 0.22.

Turning to TPAMSSSSSSRVLLRQQLMRAQAQ [TFE3], the protein stability index under setting [1] was 3.65 ± 0.26 and the protein stability index under setting [2] is 3.66 ± 0.42.

As for TPNSKYVKLNVGGSLHYTTLRTLT [KCTD13], the protein stability index is, setting by setting: under setting [1], 2.23 ± 0.15; under setting [2], 2.02 ± 0.25.

TPPEEQQEAEEPKARVLRSKSLCH [CDC25B]: the protein stability index runs as follows: under setting [1], 5.37 ± 0.26; under setting [2], 5.37 ± 0.24.

With TPSARRNYRIAGARLMRSNYPPPL [C6orf223], the protein stability index by setting is: under setting [1], 2.92 ± 0.14; under setting [2], 3.08 ± 0.22.

As to TPSFSGDSSSSCSDHCITSSDMMD [VDR], the protein stability index reads like this: under setting [1], 5.11 ± 0.28; under setting [2], 5.11 ± 0.12.

In the case of TQSNRTSRLIGKKMNRSVSLTIY [WEE1], the protein stability index runs as follows: (treatment: DMSO, c terminus: native) 2.19 ± 0.14; (treatment: MLN4924 1 uM, 8 h, c terminus: native) 2.27 ± 0.15.

On to TRDLAGLRQFFKQLPSPPFLPAAG [CEBPD], for which the protein stability index reads like this: under setting [1], 2.56 ± 0.28; under setting [2], 2.44 ± 0.048.

As to TRGRGGLLRDHIPRGKEELESLGG [MOG], the protein stability index was 4.72 ± 0.081 under setting [1] and 4.95 ± 0.19 under setting [2].

As for TSANKITLVSSGSGTMGAAKVTGE [FLOT1], the protein stability index reads like this: under setting [1], 4.63 ± 0.12; under setting [2], 4.69 ± 0.26.

For the sequence TSEGTTLSGVDLELVGSGYRMSLV [FCHO1], the protein stability index runs as follows: under setting [1], 2.14 ± 0.48; under setting [2], 2.29 ± 0.29.

Consider TSFLQHPWDESGSGCLPPEPLFEA [FOXJ1], for which the protein stability index by setting is: under setting [1], 3.56 ± 0.22; under setting [2], 3.62 ± 0.35.

For TSQKVARKFWWKNVKMIVLICVIV [VAMP8], the protein stability index amounted to 2.42 ± 0.31 under setting [1] and 2.15 ± 0.29 under setting [2].

With TSSSTSGSSDKVYAHQMVRTDSRE [MLH1], the protein stability index reads like this: under setting [1], 5.08 ± 0.17; under setting [2], 5.1 ± 0.17.
